Four molecules from patent US20210275685A1 (IMMUNOGEN, published 2021) can be followed below.

Changes are numbered by the printed parent chain.

One test concerns the target T1, huFcRn (Homo sapiens, UniProt P55899).
T1 construct: construct not described; also called human neonatal Fc receptor
The experiment in a line: sensorgram (RU against time) at pH 6.0: FcRn immobilized, antibody injected at 25 nM and 100 nM; responses of about 60-70 RU and about 190 RU.

For test [1], the target named is T2, His-tagged soluble human ADAM9 (human, UniProt Q13443 206-697).
T2 construct: also called shADAM9-His; huADAM9-His
T2 sequence: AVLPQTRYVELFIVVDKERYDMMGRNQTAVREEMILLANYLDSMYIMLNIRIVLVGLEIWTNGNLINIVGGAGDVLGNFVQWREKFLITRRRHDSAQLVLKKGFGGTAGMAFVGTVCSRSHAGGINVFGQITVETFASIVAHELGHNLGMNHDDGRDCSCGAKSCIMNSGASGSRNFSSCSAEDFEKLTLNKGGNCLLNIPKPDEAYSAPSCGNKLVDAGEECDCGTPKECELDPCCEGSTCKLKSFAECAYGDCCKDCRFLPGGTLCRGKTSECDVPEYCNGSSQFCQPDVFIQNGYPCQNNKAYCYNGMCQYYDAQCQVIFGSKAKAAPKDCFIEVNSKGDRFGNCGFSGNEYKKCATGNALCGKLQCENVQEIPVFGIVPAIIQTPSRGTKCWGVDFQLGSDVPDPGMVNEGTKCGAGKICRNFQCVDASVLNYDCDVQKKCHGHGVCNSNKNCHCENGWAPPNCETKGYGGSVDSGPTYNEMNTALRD
The test can be described thus: BIACORE, against antibodies without N54F (Table 3). An excerpt:
The relative binding affinity of the humanized/optimized antibodies hMAB-A (1.1), hMAB-A (2.2), hMAB-A (2.3), hMAB-A (3.3), hMAB-A (4.4) and the chimeric chMAB-A (having murine VH/VL Domains) to huADAM was investigated using BIACORE® analysis, in which His-tagged soluble human ADAM9 (“shADAM9-His,” containing an extracellular portion of human ADAM9 fused to a histidine-containing protein) was passed over a surface coated with immobilized antibody. Briefly, each antibody was captured on a Fab2 goat anti-human Fc surface and then incubated in the presence of different concentrations (6.25-100 nM) of the shADAM9-His protein. The kinetics of binding were determined via BIACORE® analysis binding (normalized 1:1 Langmuir binding model). Binding to cynoADAM9 was examined by FACS as described above and by ELISA.

The Kd is the constant that tells how readily two partners part at equilibrium. Read a high Kd as a looser complex.

T1 sequence (P55899 24-297 limits assumed, form in doubt): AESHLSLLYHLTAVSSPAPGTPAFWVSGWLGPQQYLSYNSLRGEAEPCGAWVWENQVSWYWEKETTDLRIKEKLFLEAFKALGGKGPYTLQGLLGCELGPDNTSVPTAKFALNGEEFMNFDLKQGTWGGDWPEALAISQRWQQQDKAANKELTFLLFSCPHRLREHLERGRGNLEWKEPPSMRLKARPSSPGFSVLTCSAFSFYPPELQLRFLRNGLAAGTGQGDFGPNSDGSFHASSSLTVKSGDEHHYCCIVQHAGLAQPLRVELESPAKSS

B1: hMAB-A (2I.2) (antibody, human IgG1, kappa)
heavy: not shown
light: DIVMTQSPDSLAVSLGERATISCKASQSVDYSGDSYMNWYQQKPGQPPKLLIYAASDLESGIPARFSGSGSGTDFTLTISSLEPEDFATYYCQQSHEDPFTFGQGTKLEIKRTVAAPSVFIFPPSDEQLKSGTASVVCLLNNFYPREAKVQWKVDNALQSGNSQESVTEQDSKDSTYSLSSTLTLSKADYEKHKVYACEVTHQGLSSPVTKSFNRGEC
notes: also called MAB-A VH(2I); MAB-A VH(2I.2)
With B1, binding in the test with huFcRn was characterised by a dissociation constant (Kd) of 161 nM. This lies in the sub-micromolar range.

B2: hMAB-A (2.2) (antibody, V domains shown)
VH: EVQLVESGGGLVKPGGSLRLSCAASGFTFSSYWMHWVRQAPGKGLEWVGEIIPIFGHTNYNEKFKSRFTISLDNSKNTLYLQMGSLRAEDTAVYYCARGGYYYYGSRDYFDYWGQGTTVTVSS
VL: DIVMTQSPDSLAVSLGERATISCKASQSVDYSGDSYMNWYQQKPGQPPKLLIYAASDLESGIPARFSGSGSGTDFTLTISSLEPEDFATYYCQQSHEDPFTFGQGTKLEIK
notes: also called parental hMAB-A (2.2); hMAB-A VH(2)/hMAB-A VL(2)
Consider B2, for which, in test [1], the “fold increase in affinity” value was ~2 fold.

B3: hMAB-A (3.3) (antibody, V domains shown)
VH: B2 VH with K63R, K65Q, S66G
VL: B2 VL with K24R
notes: human Fc; also called hMAB-A VH(3)/hMAB-A VL(3)
Consider B3, for which, in test [1], the “fold increase in affinity” value is ~2 fold.

B4: hMAB-A (2.3) (antibody, V domains shown)
VH: B2 VH
VL: B2 VL with K24R
notes: human Fc; also called hMAB-A VH(2)/hMAB-A VL(3)
Turning to B4, the “fold increase in affinity” value in test [1] is ~2 fold.
